In paper PMC10748205:

Key:
Assay in all cases: two-hybrid
[1] = biological target: Gt-1 ORF3 KISS (hepatitis E virus genotype 1 (Sar-55))
[2] = biological target: Gt-3 ORF3 KISS (hepatitis E virus genotype 3 (Kernow-C1 p6))
[3] = biological target: Gt-1 ORF3 MAPPIT (hepatitis E virus genotype 1 (Sar-55))

B1: SHANK-Associated RH Domain Interactor (natural protein)
chain: MAPPAGGAAAAASDLGSAAVLLAVHAAVRPLGAGPDAEAQLRRLQLSADPERPGRFRLELLGAGPGAVNLEWPLESVSYTIRGPTQHELQPPPGGPGTLSLHFLNPQEAQRWAVLVRGATVEGQNGSKSNSPPALGPEACPVSLPSPPEASTLKGPPPEADLPRSPGNLTEREELAGSLARAIAGGDEKGAAQVAAVLAQHRVALSVQLQEACFPPGPIRLQVTLEDAASAASAASSAHVALQVHPHCTVAALQEQVFSELGFPPAVQRWVIGRCLCVPERSLASYGVRQDGDPAFLYLLSAPREAPATGPSPQHPQKMDGELGRLFPPSLGLPPGPQPAASSLPSPLQPSWSCPSCTFINAPDRPGCEMCSTQRPCTWDPLAAAST
B1 showed a BP/BIP [1] of 42.2, a BP/PIB [1] of 429 and a Value BP (bait-prey luciferase value) [1] of 796000. The BP/BIP [2] was 25.4, the BP/PIB [2] was 101 and the Value BP (bait-prey luciferase value) [2] was 188000. It also gave a BP/BIP [3] of 61.2, a BP/PIB [3] of 69.9 and a Value BP (bait-prey fold induction) [3] of 82.1.
